Reference: PMC12172430

Target: DS-Cav1 (soluble trimeric RSV prefusion F ectodomain) (respiratory syncytial virus | bacteriophage T4) (UniProt P03420)
Assay: native gel or EMSA; native-PAGE and native western blot of the purified soluble RSV F protein

## DS-Cav1 (soluble trimeric RSV prefusion F ectodomain) (from UniProt P03420 26-513)
  stoichiometry N: 3
